Target: Full-length cynoIL4Rα on monkey IL4Rα-FlpinCHO cells (cynomolgus monkey)
Assay: flow cytometry on monkey IL4Rα-FlpinCHO cells

Sequence of Full-length cynoIL4Rα on monkey IL4Rα-FlpinCHO cells (cynomolgus monkey) (A0A2K5 entry or part of it limits assumed): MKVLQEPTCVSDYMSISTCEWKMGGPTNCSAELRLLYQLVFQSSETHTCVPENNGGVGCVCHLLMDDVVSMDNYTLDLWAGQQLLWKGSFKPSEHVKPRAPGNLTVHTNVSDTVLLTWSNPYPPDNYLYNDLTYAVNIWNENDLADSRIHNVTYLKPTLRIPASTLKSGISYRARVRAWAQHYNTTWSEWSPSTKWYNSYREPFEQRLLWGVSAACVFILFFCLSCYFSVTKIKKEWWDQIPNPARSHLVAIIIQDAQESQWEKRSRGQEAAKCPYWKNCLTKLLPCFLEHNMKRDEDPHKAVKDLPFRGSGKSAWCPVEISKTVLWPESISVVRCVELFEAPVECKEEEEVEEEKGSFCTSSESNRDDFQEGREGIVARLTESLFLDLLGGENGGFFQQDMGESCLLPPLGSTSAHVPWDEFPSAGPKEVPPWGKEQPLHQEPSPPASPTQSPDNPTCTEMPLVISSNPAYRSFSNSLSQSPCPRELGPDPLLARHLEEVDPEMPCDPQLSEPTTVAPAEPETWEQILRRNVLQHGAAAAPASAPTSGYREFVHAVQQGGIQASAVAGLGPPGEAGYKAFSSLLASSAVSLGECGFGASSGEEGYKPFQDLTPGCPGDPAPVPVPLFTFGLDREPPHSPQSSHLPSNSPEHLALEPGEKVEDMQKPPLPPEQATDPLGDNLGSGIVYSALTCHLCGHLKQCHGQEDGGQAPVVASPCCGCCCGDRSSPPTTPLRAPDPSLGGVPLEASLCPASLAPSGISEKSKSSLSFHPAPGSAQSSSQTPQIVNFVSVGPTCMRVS

| Emax | Binder |
| --- | --- |
| 82 | IL4R-CHI-04 (antibody, V domains shown) VH: DVQLQESGPGLVKPSQSLSLTCTVTGYSITSDYAWNWIRQFPGNKLEWMGYISYSGSSSYNPSLKSRISITRDTSKNQFFLQLNSVTTDDTATYYCAGGGLRRRGLFDYWGQGTTLTVSS VL: QIVLSQSPAILSASPGEKVTMTCRATSSVTYMHWYQQKPGSSPKPWIYATSNLASGVPARFSGSGSGTSYSLTISRVEAEDTATYYCQQWSSIPLTFGAGTKLELK |
| 97 | IL4R-CHI-14 (antibody, V domains shown) VH: EVMLVESGGGLVKPGGSLKLSCAASGFTFSSYAMSWVRQTPEKRLEWVAIISGGGDSTYYPDSVKGRFTISRDNAKNTLYLQMSSLRSEDTALYFCARLHYWYFDFWGTGTTVTVSS VL: DIQMTQSSSSFSVSLGDRVTITCKASEDLYNRLAWYQQKPGNAPRLLISGATSLETGVPSRFSGSGSGRDYTLIITSLQTEDVATYYCQQYWRNPYTFGGGTKLEIK |
| 58 | IL4R-CHI-07 (antibody, V domains shown) VH: QVQLQQSGAELVKPGASVKLSCKASGYTFTEYTIHWVKQRSGQGLEWIGWFYPGRGSIKYNEKFKDKATLTADKSSSTVYMELSRLTSEDSAVYFCTRHEYRGSNYAMDYWGQGTSVTVSS VL: DVLMTQTPLSLPVSLGDQASISCRSSQSIVHSSGNTYLQWYLQKPGQSPKLLIYKVSNRFSGVPDRFSGSGSGTDFTLKISRVEAEDLGVYYCFQGSHVPPTFGGGTKLEIK |
| 68 | IL4R-CHI-17 (antibody, V domains shown) VH: QAYLQQSGAELVRPGASVKMSCKASGYTFTSYNMHWAKQTPRQGLEWIGSIYPGNGDTSYNQKFKGKATLTVDKSSSTAYMQLSSLTSEDSAVYFCARGGRLRRGDWFAYWGQGTLVTVSA VL: DIQMTQSPASLSASVGETVTITCRASENIYSYLIWYQQKQGKSPQLLVYDAKTLAEGVPSRFSGSGSGSQFSLKINSLQPEDFGTYYCQHHYGTPLTFGGGTKLELK |
| 74 | IL4R-CHI-13 (antibody, V domains shown) VH: EVQLQQSGPVLVKPGASVKMSCKASGYTFTDYYMNWVKQRHGKSLDWIGTINPYNGGTGYNQKFKGKATLTVDKSSSTAYMELNSLTSEDSAVYFCARSLLRRRGAMDYWGQGTSVTVSS VL: DIVLTQSPASLVVSLGQRATISCRASKSVSTSGYGYIHWYRQKPGQPPKLLIYLVSNLESGVPARFSGSGSGTDFTLNIHPVEEEDAATYYCQHIRELYTFGGGTKLEIK |
